Paper PMC9006895

Tests used:
[1] = molecular target: flotillin 2-MBP (Laodelphax striatellus); experiment: MST; Monolith NT.115; flotillin 2-MBP labeled with NHS-495 held at 10 μM, NP-GST diluted from 17.5 μM to 0.0417 nM; 25°C
[2] = molecular target: flotillin 2-MBP (Laodelphax striatellus); experiment: BLI; Octet RED96e; biotinylated flotillin 2-MBP (5 μM) loaded on streptavidin biosensors; NP-GST 0 to 4,000 nM in 1× PBS; 25°C; buffer 20 mM NaH2PO4, 150 mM NaCl, 0.05% Tween 20

**Q.** With NP-GST (natural protein) as the substance, how does the Kd [1] read?
**A.** 791 nM

**Q.** What about the Kd [2] of the same substance?
**A.** 619 nM

**Q.** What about the koff [2] of the same substance?
**A.** 0.00382 s⁻¹

**Q.** What about the kon [2] of the same substance?
**A.** 6170 M⁻¹ s⁻¹
